The stoichiometry N is the number of molecules, sites or subunits per partner or assembly.

Experimental findings from doi:10.1101/2021.05.10.443412 are described below.

Test [1] has as its target T1, factor inhibiting HIF-1 (FIH-1), full-length (human), Q9NWT6. In words: SEC. Conditions: remark: other sources report otherwise.
Test [2] has as its target T1, factor inhibiting HIF-1 (FIH-1), …. The experiment in a line: SEC-MALS. Conditions: remark: other sources report otherwise.

B1: factor inhibiting HIF-1 (FIH-1), full-length, Q9NWT6 1-349 (enzyme)
chain: MAATAAEAVASGSGEPREEAGALGPAWDESQLRSYSFPTRPIPRLSQSDPRAEELIENEEPVVLTDTNLVYPALKWDLEYLQENIGNGDFSVYSASTHKFLYYDEKKMANFQNFKPRSNREEMKFHEFVEKLQDIQQRGGEERLYLQQTLNDTVGRKIVMDFLGFNWNWINKQQGKRGWGQLTSNLLLIGMEGNVTPAHYDEQQNFFAQIKGYKRCILFPPDQFECLYPYPVHHPCDRQSQVDFDNPDYERFPNFQNVVGYETVVGPGDVLYIPMYWWHHIESLLNGGITITVNFWYKGAPTPKRIEYPLKAHQKVAIMRNIEKMLGEALGNPQEVGPLLNTMIKGRYN
Regarding B1, the stoichiometry N in test [1] and in test [2] was 2 throughout.
